Laboratory results: patent US20180236032A1
Where two headings read alike, the source gives them in different places.

How the values were obtained:
Test in all cases: cell-based or functional assay
[1] = target: FGFR3c expressed on BaF3 cells (BaF3/FGFR3c)
[2] = target: FGFR3c expressed on BaF3 cells (BaF3/FGFR3c); remark: listed apart in the source
[3] = target: FGFR3c expressed on BaF3 cells (BaF3/FGFR3c); remark: listed apart in the source

BaF3/FGFR3 cell proliferation, O.D. (WST-1), Sprifermin 100 ng/mL (CTR+) [1]: 0.194 O.D.
BaF3/FGFR3 cell proliferation, O.D. (WST-1), Sprifermin 100 ng/mL (CTR+) [2]: 0.15 O.D.
BaF3/FGFR3 cell proliferation, O.D. (WST-1), Sprifermin 100 ng/mL (CTR+) [3]: 0.5 O.D.
BaF3/FGFR3 cell proliferation, Optical Density (WST-1), Sprifermin 100 ng/mL (CTR+) [3]: 0.5 O.D.
Substance: recombinant truncated FGF-18 (trFGF-18) (from UniProt O76093 28-196) (ligand)
